Laboratory results published in patent publication US20240368279A1 (published 2024).

Tests used:
[1] = molecular target: 12283-H08H (human, UniProt Q08722 19-139); assay: SPR
[2] = molecular target: human CD47 protein (antigen of the SPR affinity determination) (human, UniProt Q08722 19-139); assay: SPR

B1: Hu004-68 (antibody, V domains shown)
VH: EVQLVESGGGLVQPGGSLRLSCAASGFTFSGYGMSWVRQAPGKGLEWVATITSGGTYTYYPDSVKGRFTISRDNAKNSLYLQMNSLRAEDTAVYYCARSLAGNAMDYWGQGTLVTVSS
VL: EIVLTQSPVTLSVSPGERATLSCRASQGVTSNLAWYQQKPGQAPRLLIYGASTRATGVPARFSGSGSGTEFTLTISSLQSEDFAVYYCQHRGTFGQGTKVDIK
Binder B1 has a Kd [1] of 222 nM.

B2: Hu004-73 antibody (full-length human IgG1, kappa) (antibody, V domains shown)
VH: B1 VH
VL: DIQMTQSPSSLSASVGDRVTITCRAGQPLNNYLNWYQQKPGKPPRLLIYAASTLQSGVPSRFSGSGSGTDFTLTISGLQSEDFASYFCQHRVTFGPGTKVDVR
Binder B2 has a Kd [2] of 184 nM.
